Assay results from patent US20260216242A1, “ALPP-SPECIFIC VARIANT ANTIGEN BINDING MOLECULES” (ALMAC DISCOVERY LIMITED, priority 2022, published 2026).

B1: B01: ALPP/ALPPL2 targeting VHH domain, SEQ ID NO: 20 (protein)
VHH: QVQLVESGGGLVQAGGSLRLSCEVTRSPMPIDTMAWYRQAPGRQRELVAIISRSGSTNYADSVKGRFTISRNDTKSTMYKSTMYLKMNTLELEDTGVYYCNAVGLWNGAEYWGQGTQVTVSS
B2: F08: ALPP/ALPPL2 targeting VHH domain, SEQ ID NO: 35 (protein)
VHH: QVQLVESGGGSVQAGGSLRLSCAASGPSLSNYAMGWFRQAPGKEREFVAGISWGGGRTSYTDSVKGRFTISRDNAKNTVYLQMNNLKPEDTGVYYCAGRYGRGRNVEYEYDYWGQGTQVTVSS

Target: T1, hALPI (Homo sapiens, UniProt P09923)
T1 sequence (P09923 with tags, fused parts or gaps): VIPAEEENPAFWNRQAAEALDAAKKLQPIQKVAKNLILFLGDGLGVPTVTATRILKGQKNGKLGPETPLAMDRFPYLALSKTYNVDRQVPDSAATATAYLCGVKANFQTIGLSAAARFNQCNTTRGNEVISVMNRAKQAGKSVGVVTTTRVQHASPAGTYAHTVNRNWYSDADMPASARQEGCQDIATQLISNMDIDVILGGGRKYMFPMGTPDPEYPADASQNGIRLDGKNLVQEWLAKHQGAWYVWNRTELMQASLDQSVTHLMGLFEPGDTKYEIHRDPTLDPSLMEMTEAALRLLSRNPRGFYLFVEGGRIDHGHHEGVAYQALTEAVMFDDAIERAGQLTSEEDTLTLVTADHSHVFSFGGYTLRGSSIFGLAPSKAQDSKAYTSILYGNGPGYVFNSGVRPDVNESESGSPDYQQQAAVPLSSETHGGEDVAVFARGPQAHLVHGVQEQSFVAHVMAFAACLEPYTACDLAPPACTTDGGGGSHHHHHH
Experiment: BLI binding to ALPI His
Settings: VHH-hFc fusions, very low response values
Description: Binding kinetics were determined using the Biolayer Interferometry (BLI) Octet K2 system (Sartorius). Human ALPP, ALPPL2, ALPL (each fused with a cysteine stabilised leucine zipper) and ALPI, (SEQ ID NO: 265, SEQ ID NO: 266 and SEQ ID NO: 267 and SEQ ID NO: 264 respectively) were immobilised in sodium acetate pH5 buffer to AR2G sensors using amine coupling. All assays were conducted in PBS with a plate temperature of 25° C. Ka (M^−1s^−1), Kd (s^−1) and KD (nM) values were determined using Octet Data Analysis High Throughput software (ForteBio) for Biolayer Interferometry.
Binding kinetics were determined using the Biolayer Interferometry (BLI) Octet K2 or R4 system (Sartorius). Human ALPP, ALPPL2 and ALPL all fused with a disulphide stabilised leucine zipper (SEQ ID NO: 265, SEQ ID NO: 266, and SEQ ID NO: 267) and ALPI His (SEQ ID NO: 264) were used in BLI experiments. […] Ka (M^−1s^−1), Kd (s^−1) and KD (nM) values were determined using Octet Data Analysis High Throughput software (Sartorius) for Biolayer Interferometry.
Binding kinetics were determined using the Biolayer Interferometry (BLI) Octet K2 or R4 system (Sartorius). […] Ka (M^−1s^−1), Kd (s^−1) and KD (nM) values were determined using Octet Data Analysis High Throughput software (Sartorius) for Biolayer Interferometry.

Molecule | Kd
B1 | 148 nM
B2 | 10.8 nM
